Measurements reported in US9908919B2, “Cyclic apelin derivatives for the treatment of heart failure” (priority 2013, dated 2018).
Where a SMILES comes first, the peptide text is derived from it. Bridges are numbered along the chain shown (N, C = ends). [ ]: non-standard residue; d: D form. pGlu = O=C1CC[C@@H](C(=O)O)N1; dNle = CCCC[C@@H](N)C(=O)O

B1: Example 1: pE-R-C*-R-L-C*-H-K-G-P-Nle-P-F-OH (Disulfide C3-C6) (peptide)
peptide: ERCRLCHKGPLPF
HELM: PEPTIDE1{[Glp].R.C.R.L.C.H.K.G.P.[Nle].P.F}$PEPTIDE1,PEPTIDE1,3:R3-6:R3$$$V2.0
SMILES: CCCC[C@H](NC(=O)[C@@H]1CCCN1C(=O)CNC(=O)[C@H](CCCCN)NC(=O)[C@H](Cc1c[nH]cn1)NC(=O)[C@@H]1CSSC[C@H](NC(=O)[C@H](CCCNC(=N)N)NC(=O)[C@@H]2CCC(=O)N2)C(=O)N[C@@H](CCCNC(=N)N)C(=O)N[C@@H](CC(C)C)C(=O)N1)C(=O)N1CCC[C@H]1C(=O)N[C@@H](Cc1ccccc1)C(=O)O
B2: Example 2: pE-R-C*-R-L-C*-H-K-G-P-(D-Nle)-a-f-OH (Disulfide C3-C6) (peptide)
peptide: ERCRLCHKGPLAF
HELM: PEPTIDE1{[Glp].R.C.R.L.C.H.K.G.P.[CCCC[C@@H](N[*:1])C(=O)[*:2]].[dA].[dF]}$PEPTIDE1,PEPTIDE1,3:R3-6:R3$$$V2.0
SMILES: CCCC[C@@H](NC(=O)[C@@H]1CCCN1C(=O)CNC(=O)[C@H](CCCCN)NC(=O)[C@H](Cc1c[nH]cn1)NC(=O)[C@@H]1CSSC[C@H](NC(=O)[C@H](CCCNC(=N)N)NC(=O)[C@@H]2CCC(=O)N2)C(=O)N[C@@H](CCCNC(=N)N)C(=O)N[C@@H](CC(C)C)C(=O)N1)C(=O)N[C@H](C)C(=O)N[C@H](Cc1ccccc1)C(=O)O
B3: Example 4: pE-R-c*-R-L-C*-H-K-G-P-f-a-f-OH (Disulfide C3-C6) (peptide)
peptide: ERCRLCHKGPFAF
HELM: PEPTIDE1{[Glp].R.[dC].R.L.C.H.K.G.P.[dF].[dA].[dF]}$PEPTIDE1,PEPTIDE1,3:R3-6:R3$$$V2.0
SMILES: CC(C)C[C@@H]1NC(=O)[C@H](CCCNC(=N)N)NC(=O)[C@H](NC(=O)[C@H](CCCNC(=N)N)NC(=O)[C@@H]2CCC(=O)N2)CSSC[C@@H](C(=O)N[C@@H](Cc2c[nH]cn2)C(=O)N[C@@H](CCCCN)C(=O)NCC(=O)N2CCC[C@H]2C(=O)N[C@H](Cc2ccccc2)C(=O)N[C@H](C)C(=O)N[C@H](Cc2ccccc2)C(=O)O)NC1=O
B4: Example 5: pE-R-P-R-L-C*-H-K-C*-P-Nle-P-F-OH (Disulfide C6-C9) (peptide)
peptide: ERPRLCHKCPLPF
HELM: PEPTIDE1{[Glp].R.P.R.L.C.H.K.C.P.[Nle].P.F}$PEPTIDE1,PEPTIDE1,6:R3-9:R3$$$V2.0
SMILES: CCCC[C@H](NC(=O)[C@@H]1CCCN1C(=O)[C@@H]1CSSC[C@H](NC(=O)[C@H](CC(C)C)NC(=O)[C@H](CCCNC(=N)N)NC(=O)[C@@H]2CCCN2C(=O)[C@H](CCCNC(=N)N)NC(=O)[C@@H]2CCC(=O)N2)C(=O)N[C@@H](Cc2c[nH]cn2)C(=O)N[C@@H](CCCCN)C(=O)N1)C(=O)N1CCC[C@H]1C(=O)N[C@@H](Cc1ccccc1)C(=O)O
B5: Example 6: pE-R-P-R-L-c*-H-K-C*-P-f-a-f-OH (peptide)
peptide: ERPRLCHKCPFAF
HELM: PEPTIDE1{[Glp].R.P.R.L.[dC].H.K.C.P.[dF].[dA].[dF]}$PEPTIDE1,PEPTIDE1,6:R3-9:R3$$$V2.0
SMILES: CC(C)C[C@H](NC(=O)[C@H](CCCNC(=N)N)NC(=O)[C@@H]1CCCN1C(=O)[C@H](CCCNC(=N)N)NC(=O)[C@@H]1CCC(=O)N1)C(=O)N[C@@H]1CSSC[C@@H](C(=O)N2CCC[C@H]2C(=O)N[C@H](Cc2ccccc2)C(=O)N[C@H](C)C(=O)N[C@H](Cc2ccccc2)C(=O)O)NC(=O)[C@H](CCCCN)NC(=O)[C@H](Cc2c[nH]cn2)NC1=O
B6: Example 7: pE-R-P-R-L-(D-hC)*-H-K-C*-P-(D-Nle)-p-f-OH (peptide)
peptide: ERPRLCHKCPLPF
HELM: PEPTIDE1{[Glp].R.P.R.L.[O=C([C@@H](CCS[*:3])N[*:1])[*:2]].H.K.C.P.[CCCC[C@@H](N[*:1])C(=O)[*:2]].[dP].[dF]}$PEPTIDE1,PEPTIDE1,6:R3-9:R3$$$V2.0
SMILES: CCCC[C@@H](NC(=O)[C@@H]1CCCN1C(=O)[C@@H]1CSSCC[C@@H](NC(=O)[C@H](CC(C)C)NC(=O)[C@H](CCCNC(=N)N)NC(=O)[C@@H]2CCCN2C(=O)[C@H](CCCNC(=N)N)NC(=O)[C@@H]2CCC(=O)N2)C(=O)N[C@@H](Cc2c[nH]cn2)C(=O)N[C@@H](CCCCN)C(=O)N1)C(=O)N1CCC[C@@H]1C(=O)N[C@H](Cc1ccccc1)C(=O)O
B7: Example 8: pE-R-P-R-L-C*-H-K-G-P-Nle-P-C*-OH (peptide)
peptide: ERPRLCHKGPLPC
HELM: PEPTIDE1{[Glp].R.P.R.L.C.H.K.G.P.[Nle].P.C}$PEPTIDE1,PEPTIDE1,6:R3-13:R3$$$V2.0
SMILES: CCCC[C@@H]1NC(=O)[C@@H]2CCCN2C(=O)CNC(=O)[C@H](CCCCN)NC(=O)[C@H](Cc2c[nH]cn2)NC(=O)[C@@H](NC(=O)[C@H](CC(C)C)NC(=O)[C@H](CCCNC(=N)N)NC(=O)[C@@H]2CCCN2C(=O)[C@H](CCCNC(=N)N)NC(=O)[C@@H]2CCC(=O)N2)CSSC[C@@H](C(=O)O)NC(=O)[C@@H]2CCCN2C1=O

What was measured:
in vitro = conditions: rat, plasma
Protocol: The calcium flux protocol described above was followed, with the following changes. The peptides were also incubated with 5% rat plasma (Bioreclamation # [sequence]-M, Na Heparin-treated). Readings were taken at time points t0 and t24 hrs, after incubation in a 37° C. tissue culture incubator. Peptide plasma half-life in minutes was estimated by calculating the following: • 1) LN((EC50 at t0)/(EC50 at t24 hrs)), • 2) Calculate slope of value above and • 3) t112=0.693/(slope^2).

[1] = target: T1, human APJ receptor (hAPJ) (human, UniProt P35414 1-380); experiment: cell-based or functional assay
T1 sequence (looked up): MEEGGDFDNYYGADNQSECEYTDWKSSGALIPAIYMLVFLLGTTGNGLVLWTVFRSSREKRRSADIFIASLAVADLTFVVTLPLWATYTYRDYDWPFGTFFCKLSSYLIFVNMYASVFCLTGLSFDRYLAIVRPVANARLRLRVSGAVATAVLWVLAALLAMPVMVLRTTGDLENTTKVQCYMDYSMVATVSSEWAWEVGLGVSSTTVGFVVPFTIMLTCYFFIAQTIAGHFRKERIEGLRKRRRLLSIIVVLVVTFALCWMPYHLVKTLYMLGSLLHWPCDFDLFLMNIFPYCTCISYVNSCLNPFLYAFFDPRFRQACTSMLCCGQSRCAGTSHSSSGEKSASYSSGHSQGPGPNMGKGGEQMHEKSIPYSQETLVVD

Molecule | half-life (in vitro) | hAPJ Ca^2+ Flux EC50 [1]
CCCC[C@@H](NC(=O)[C@@H]1CCCN1C(=O)CNC(=O)[C@H](CCCCN)NC(=O)[C@H](Cc1c[nH]cn1)NC(=O)[C@@H]1CSSC[C@H](NC(=O)[C@H](CCCNC(=N)N)NC(=O)[C@@H]2CCC(=O)N2)C(=O)N[C@@H](CCCNC(=N)N)C(=O)N[C@@H](CC(C)C)C(=O)N1)C(=O)NCCc1ccccc1 [Example 3, pE-R-C*-R-L-C*-H-K-G-P-(D-Nle)-NH(Phenethyl)] (HELM PEPTIDE1{[Glp].R.C.R.L.C.H.K.G.P.[CCCC[C@@H](N[*:1])C(=O)[*:2]].[c1ccc(CCN[*:1])cc1]}$PEPTIDE1,PEPTIDE1,3:R3-6:R3$$$V2.0) | 1200 min | –
CCCC[C@H](NC(=O)[C@@H]1CCCN1C(=O)[C@@H]1CSSC[C@H](NC(=O)[C@H](CC(C)C)NC(=O)[C@H](CCCNC(=N)N)NC(=O)[C@@H]2CCCN2C(=O)[C@H](CCCNC(=N)N)NC(=O)[C@@H]2CCC(=O)N2)C(=O)N[C@@H](Cc2c[nH]cn2)C(=O)N[C@@H](CCCCN)C(=O)N1)C(=O)N1CCC[C@H]1C(=O)N[C@@H](Cc1ccccc1)C(=O)O [Example 5, pE-R-P-R-L-C*-H-K-C*-P-Nle-P-F-OH] (HELM PEPTIDE1{[Glp].R.P.R.L.C.H.K.C.P.[Nle].P.F}$PEPTIDE1,PEPTIDE1,6:R3-9:R3$$$V2.0) | 16 min | –
CCCC[C@@H](NC(=O)[C@@H]1CCCN1C(=O)[C@@H]1CSSCC[C@@H](NC(=O)[C@H](CC(C)C)NC(=O)[C@H](CCCNC(=N)N)NC(=O)[C@@H]2CCCN2C(=O)[C@H](CCCNC(=N)N)NC(=O)[C@@H]2CCC(=O)N2)C(=O)N[C@@H](Cc2c[nH]cn2)C(=O)N[C@@H](CCCCN)C(=O)N1)C(=O)N1CCC[C@@H]1C(=O)N[C@H](Cc1ccccc1)C(=O)O [Example 7, pE-R-P-R-L-(D-hC)*-H-K-C*-P-(D-Nle)-p-f-OH] (HELM PEPTIDE1{[Glp].R.P.R.L.[O=C([C@@H](CCS[*:3])N[*:1])[*:2]].H.K.C.P.[CCCC[C@@H](N[*:1])C(=O)[*:2]].[dP].[dF]}$PEPTIDE1,PEPTIDE1,6:R3-9:R3$$$V2.0) | 52 min | –
B1 | – | 3.5 nM
B2 | – | 77 nM
[pGlu]RCRLCHKGP[dNle]-{NH‑phenethyl} (disulfide 3-6) [Example 3: pE-R-C*-R-L-C*-H-K-G-P-(D-Nle)-NH(Phenethyl) (Disulfide C3-C6)] | – | 871 nM
B3 | – | 496 nM
B4 | – | 6.9 nM
B5 | – | 12.3 nM
B6 | – | 9.7 nM
B7 | – | 43.7 nM
